Reference: patent publication US20260152729A1, “NOVEL NKR VARIANTS FOR INCREASED PRODUCTION OF ISOBUTANOL” (Gevo, Inc., priority 2020, published 2026)
Residue numbers refer to the chain shown, from its start. Names may count otherwise.

B1: Se1_NKR: NADH-dependent ketol-acid reductoisomerase from Slackia exigua (S. exigua KARI, SEQ ID NO: 2); parent enzyme of the variants (protein, listed as Slackia exigua)
chain: MSVKTKEKEMAVTILYEQDVDPKVIQGLKVGIIGYGSQGHAHALNLMDSGVDVRVGLREGSSSWKTAEEAGLKVTDMDTAAEEADVIMVLVPDEIQPKVYQEHIAAHLKAGNTLAFAHGFNIHYGYIVPPEDVNVIMCAPKGPGHIVRRQFTEGSGVPDLACVQQDATGNAWDIVLSYCWGVGGARSGIIKATFAEETEEDLFGEQAVLCGGLVELVKAGFETLTEAGYPPELAYFECYHEMKMIVDLMYESGIHFMNYSISNTAEYGEYYAGPKVINEQSREAMKEILKRIQDGSFAQEFVDDCNNGHKRLLEQREAINTHPIETTGAQIRSMFSWIKKED
B2: V1: Se1_NKR Gen6 variant with mutations M77I, V91I, K290A, Q330N as printed in Table 5; e.g. SEQ ID NO: 90 (protein, listed as Slackia exigua)
chain: MSVKTKEKEMAVTILYEQDVDPKVIQGLKVGIIGYGSQGHAHALNLMDSGVDVRVGLREGDSDWKTAEEAGLKVTDIDTAAEEADVIMVLIPDEVQPKVYQEHIAAHLKAGNTLAFAHGFNIHYGYIVPPEDVNVIMCAPKGPGHIVRRQFTEGSGVPDLACVQQDATGNAWDIVLSYCWGVGGARSGIIKATFAEETEEDLFGEQAVLCGGLVELVKAGFETLTEAGYPPELAYFECYHEMKMIVDLMYESGIHFMNYSISNTAEYGEYYAGPKVINEQSREAMKEILARIQDGSFAQEFVDDCNNGHKRLLEQREAINTHPIETTGARIRSMFSWIKKEDLEHHHHHH
modifications: SITE 1..350 Se1_NKR_v1 protein
B3: V48: Se1_NKR Gen6 variant with mutations G31A, M77I, Q330N as printed in Table 5; e.g. SEQ ID NO: 92 (protein, listed as Slackia exigua)
chain: B2 chain with G31A, I91V, A290K
modifications: SITE 1..350 Se1_NKR_v48 protein
B4: V65: Se1_NKR Gen6 variant with mutations G31A, V91I, Q330N as printed in Table 5; e.g. SEQ ID NO: 94 (protein, listed as Slackia exigua)
chain: B2 chain with G31A, I77M, A290K
modifications: SITE 1..350 Se1_NKR_v65 protein

Legend:
Isobutanol Production = test: Simple shake flask fermentation, final relative isobutanol concentration; assay type: cell-based; conditions: enzyme on vector; for Isobutanol Concentration relative to Se1_NKR control (WT): final concentration
Text: This improvement in isobutanol production is expected to increase with multiple copies of the Se1_NKR_v1 variant enzyme incorporated into the host cell genome.

[1] = KARI enzyme Ki assay (product inhibition) with NADH, purified enzymes; assay type: biochemical, Slackia exigua; conditions: for IC50 / Ki: 1 mM 2-acetolactate, 0-40 mM R-DHIV; for catalytic efficiency using KM apparent = KM*(1+[product]/Ki), compared to Se1_NKR: 1 mM DHIV; for catalytic efficiency (KM apparent) versus increasing concentrations of DHIV (FIG. 14A-B): both conditions (33° C., pH 6.8 and 30° C., pH 7.0)
Method: (§1) In this example, three different KARI Gen6 variant enzymes (v1, v48, and v65) and parent enzyme Se1_NKR_gen 6 were screened for their activity with NADH as cofactor. The enzymes were expressed E. coli, and resulting transformants were cultivated in shake flask fermentations as described below and samples were taken after 44h, centrifuged at 4000×g for 10 mins at 4° C. and the cell pellets were stored at −80° C. until analysis. The pellets were lysed by bead beating and the lysates were analyzed by KARI activity assay as described below using NADH and NADPH as cofactors.
(§2) KARI Enzyme Assay: The assay and no substrate control reactions were performed in triplicate for each sample. For the KM assay, the reaction samples comprised 100 mM potassium phosphate, pH 6.8 or 7, 10 mM MgCl2, 1 mM DTT, 200 μM NADH, 0-10 mM 2-acetolactate, and 0.1 mg/mL of enzyme. For the Ki assay, the reaction samples comprised 100 mM potassium phosphate, pH 6.8 or 7, 10 mM MgCl2, 1 mM DTT, 200 μM NADH, 1 mM 2-acetolactate, 0-40 mM R-DHIV, and 0.1 mg/mL of enzyme. For the no substrate controls, the 2-acetolactate was substituted with water. 10 μL of each lysate were transferred into a 96 well half area assay plate. The reaction was started with 90 μL of reaction buffer to each well using a multichannel pipette. The samples were mixed immediately. The samples were read at 340 nm every 10 seconds for 5 minutes.
(§3) The purified enzymes encoded by Se1_NKR_Gen6 (Se1), Se1_NKR_v1 (v1), Se1_NKR_v48 (v48), and Se1_NKR_v65 (v65) under two conditions: 33° C. at pH 6.8 and 30° C. at pH 7 were characterized.
In order to determine the impact of all three parameters (kcat, KM, and Ki) to more closely determine the impact of the new variants in vivo, the catalytic efficiency for each enzyme using the KM apparent, which is equal to KM*(1+[product]/Ki), was calculated. […] At this DHIV concentration level, in vivo, at 33° C., pH 6.8, m48 would be 157%, Se1_NKR_v1 would be 139%, and Se1_NKR_v65 would be 118% improved compared to Se1_NKR. For example, in vivo, cells expressing Se1_NKR-v48, it would be expected that 16 fewer copies of the enzyme could potentially achieve 36% less protein while achieving 0.35 g/g yeast efficiency.

[2] = KARI enzyme KM assay with NADH, purified enzymes; assay type: biochemical, Slackia exigua; conditions: for Vmax: 0.1 mg/mL of enzyme
Method: as §1, §2, §3

[3] = Kinetic parameters of Se1_NKR and Se2_NKR for acetolactate, as set in the model; assay type: biochemical; conditions: parameter set in the model
Text: (§4) Where nNKR is the number of copies of NKR integrated into the yeast genome, kcatis the first order rate constant, AL is the cytosolic concentration of acetolactate, Km is the Michaelis constant for acetolactate, DHIV is the concentration of DHIV, and KiDHIV is the inhibition constant for DHIV. […] This also assumes that all copies of NKR are expressed equally regardless of promotor or where it is integrated in the genome.

[4] = DHIV inhibition constant of Se1_NKR and Se2_NKR, as set in the model; assay type: biochemical; conditions: parameter set in the model; read-out: KiDHIV
Text: as §4

[5] = system: isobutanol producing yeast strains; test: Genome scale metabolic modeling (iMM904) of isobutanol yield, batch simulation; set-up: species or system S. cerevisiae; conditions: cells with 16 fewer copies of the enzyme, 36% less protein
Method: The iMM904 metabolic reconstruction of S. cerevisiae metabolism served as the basis of the model. The model consists of a matrix of stoichiometric coefficients that represent metabolic and transport reactions encoded by 904 genes. Reactions were added as new columns to the matrix while new rows were added for additional metabolites. The native pathway for making isobutanol in the yeast mitochondria was turned off. A summary of these changes is found in Table 2 below. With these changes made, the maximum isobutanol yield from glucose in the model was approximately 0.38 g/g. If the model was altered to not produce glycerol, the yield increased to 0.41 g/g.
With more reactions than metabolites, metabolic networks have a near infinite number of solutions for any given condition. In flux balance analysis, the flux distribution is obtained by finding the solution that maximizes an objective function. […] Each flux is bounded by known limits of each reaction, though the bounds are mostly set by thermodynamic reversibility. […]
While all other reactions in the isobutanol pathway were set by reversibility only, the upper bound of flux through NKR (vnkr) was set by the kinetics of Se1 and Se2 NKR. Flux was calculated by the following equation: […]
The benefits of improving either NKR enzyme in a strain with an equal number of both was calculated to predict which enzyme was best to engineer. […]

[6] = generally, under the two conditions

Row | Molecule | Isobutanol Concentration relative to Se1_NKR control (WT) (Isobutanol Production) | IC50 ([1]; 30° C., pH 7) | Ki ([1]; 30° C., pH 7) | IC50 ([1]; 33° C., pH 6.8) | Ki ([1]; 33° C., pH 6.8) | Kcat ([2]; 30° C., pH 7) | Km ([2]; 30° C., pH 7) | Vmax ([2]; 30° C., pH 7) | Kcat ([2]; 33° C., pH 6.8) | Km ([2]; 33° C., pH 6.8) | Vmax ([2]; 33° C., pH 6.8) | catalytic efficiency using KM apparent = KM*(1+[product]/Ki), compared to Se1_NKR ([1]; 33° C., pH 6.8) | catalytic efficiency (KM apparent) versus increasing concentrations of DHIV (FIG. 14A-B) [1] | other results
1 | B1 | 100% | 1810 µM | 752 µM | 2600 µM | 768 µM | 442 s⁻¹ | 711 µM | 1.30 mM/s | 382 s⁻¹ | 419 µM | 1.12 mM/s | – | – | Kcat [3]: 2.6 s⁻¹; Km [3]: 430 µM; Ki [4]: 1100 µM
2 | B2 | 105% | 2300 µM | 832 µM | 2880 µM | 834 µM | 555 s⁻¹ | 566 µM | 1.63 mM/s | 491 s⁻¹ | 407 µM | 1.45 mM/s | 139% | decreasing catalytic efficiencies | isobutanol concentration compared with the WT enzyme, in words (Isobutanol Production): significantly more isobutanol than the WT enzyme; KM for acetolactate, comparison of the variants [2, 6]: best (lowest)
3 | B3 | 104% | 2450 µM | 996 µM | 3030 µM | 1050 µM | 717 s⁻¹ | 683 µM | 2.11 mM/s | 647 s⁻¹ | 533 µM | 1.90 mM/s | 157% | highest catalytic efficiencies | Ki for DHIV, comparison of the variants [1, 6]: best (highest); rate (kcat or VMAX), comparison of the variants [2, 6]: best (highest); expected yield (printed: yeast efficiency) [5]: 0.35 g/g
4 | B4 | 103% | 2040 µM | 821 µM | 2370 µM | 801 µM | 602 s⁻¹ | 673 µM | 1.77 mM/s | 538 s⁻¹ | 510 µM | 1.58 mM/s | 118% | decreasing catalytic efficiencies | –
